T1: EBOV GP on rVSV particles (Ebola virus (EBOV), UniProt Q05320 33-676)
T1 sequence: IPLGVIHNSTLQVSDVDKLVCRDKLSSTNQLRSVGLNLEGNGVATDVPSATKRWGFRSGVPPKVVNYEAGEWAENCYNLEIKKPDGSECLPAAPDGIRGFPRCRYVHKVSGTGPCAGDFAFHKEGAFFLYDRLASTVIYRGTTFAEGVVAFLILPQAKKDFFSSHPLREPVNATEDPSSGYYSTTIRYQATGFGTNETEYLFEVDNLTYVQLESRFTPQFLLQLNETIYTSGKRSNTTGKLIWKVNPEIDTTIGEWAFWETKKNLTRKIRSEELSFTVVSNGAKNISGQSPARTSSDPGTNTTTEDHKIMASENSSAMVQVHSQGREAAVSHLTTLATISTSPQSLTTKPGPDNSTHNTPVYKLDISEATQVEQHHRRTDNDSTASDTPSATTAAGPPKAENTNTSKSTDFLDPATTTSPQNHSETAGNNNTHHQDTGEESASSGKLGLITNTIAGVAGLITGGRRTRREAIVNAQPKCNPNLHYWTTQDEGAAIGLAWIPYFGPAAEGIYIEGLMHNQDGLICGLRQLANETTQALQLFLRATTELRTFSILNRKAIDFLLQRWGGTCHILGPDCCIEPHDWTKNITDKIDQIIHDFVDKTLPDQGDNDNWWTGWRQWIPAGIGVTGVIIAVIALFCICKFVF

T2: SUDV GP on rVSV particles (Sudan virus (SUDV), UniProt Q66814 33-676)
T2 sequence: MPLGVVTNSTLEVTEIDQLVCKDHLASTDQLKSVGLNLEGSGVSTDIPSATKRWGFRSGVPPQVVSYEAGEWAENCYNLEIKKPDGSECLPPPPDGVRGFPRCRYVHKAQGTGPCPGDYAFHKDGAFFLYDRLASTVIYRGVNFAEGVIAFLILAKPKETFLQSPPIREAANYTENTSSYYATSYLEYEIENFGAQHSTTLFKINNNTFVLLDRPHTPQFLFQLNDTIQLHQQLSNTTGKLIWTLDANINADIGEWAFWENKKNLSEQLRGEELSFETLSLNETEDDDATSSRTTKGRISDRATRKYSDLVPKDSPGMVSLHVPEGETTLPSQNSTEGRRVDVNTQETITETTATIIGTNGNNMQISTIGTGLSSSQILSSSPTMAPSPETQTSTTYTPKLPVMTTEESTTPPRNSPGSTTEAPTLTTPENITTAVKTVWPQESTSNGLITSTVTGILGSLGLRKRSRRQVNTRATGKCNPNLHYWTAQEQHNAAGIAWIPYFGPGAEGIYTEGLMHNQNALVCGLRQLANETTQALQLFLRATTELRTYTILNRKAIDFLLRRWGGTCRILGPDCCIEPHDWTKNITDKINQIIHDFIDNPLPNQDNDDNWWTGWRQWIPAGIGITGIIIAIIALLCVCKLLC

T3: TAFV GP on VSV pseudotype particles (Tai Forest virus (TAFV), UniProt Q66810 33-676)
T3 sequence: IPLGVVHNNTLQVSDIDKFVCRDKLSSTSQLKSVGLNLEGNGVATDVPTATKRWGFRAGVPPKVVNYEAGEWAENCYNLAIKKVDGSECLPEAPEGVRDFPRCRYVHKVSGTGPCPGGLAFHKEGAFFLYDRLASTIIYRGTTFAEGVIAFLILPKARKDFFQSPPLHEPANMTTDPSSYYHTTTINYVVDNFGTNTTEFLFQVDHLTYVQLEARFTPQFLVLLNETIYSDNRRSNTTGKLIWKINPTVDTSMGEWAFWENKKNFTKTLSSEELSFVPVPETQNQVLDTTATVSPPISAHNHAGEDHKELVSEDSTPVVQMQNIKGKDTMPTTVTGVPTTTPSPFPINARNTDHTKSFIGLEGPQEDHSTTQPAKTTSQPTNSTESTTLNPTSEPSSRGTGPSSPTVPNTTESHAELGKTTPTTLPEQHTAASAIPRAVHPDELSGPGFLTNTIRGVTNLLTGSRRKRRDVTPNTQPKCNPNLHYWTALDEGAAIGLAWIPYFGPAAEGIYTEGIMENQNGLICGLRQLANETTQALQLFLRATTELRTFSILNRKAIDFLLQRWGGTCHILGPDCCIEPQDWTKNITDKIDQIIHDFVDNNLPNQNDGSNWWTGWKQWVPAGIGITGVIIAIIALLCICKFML

T4: RESTV GP on rVSV particles (Reston virus (RESTV), UniProt Q66799 34-677)
T4 sequence: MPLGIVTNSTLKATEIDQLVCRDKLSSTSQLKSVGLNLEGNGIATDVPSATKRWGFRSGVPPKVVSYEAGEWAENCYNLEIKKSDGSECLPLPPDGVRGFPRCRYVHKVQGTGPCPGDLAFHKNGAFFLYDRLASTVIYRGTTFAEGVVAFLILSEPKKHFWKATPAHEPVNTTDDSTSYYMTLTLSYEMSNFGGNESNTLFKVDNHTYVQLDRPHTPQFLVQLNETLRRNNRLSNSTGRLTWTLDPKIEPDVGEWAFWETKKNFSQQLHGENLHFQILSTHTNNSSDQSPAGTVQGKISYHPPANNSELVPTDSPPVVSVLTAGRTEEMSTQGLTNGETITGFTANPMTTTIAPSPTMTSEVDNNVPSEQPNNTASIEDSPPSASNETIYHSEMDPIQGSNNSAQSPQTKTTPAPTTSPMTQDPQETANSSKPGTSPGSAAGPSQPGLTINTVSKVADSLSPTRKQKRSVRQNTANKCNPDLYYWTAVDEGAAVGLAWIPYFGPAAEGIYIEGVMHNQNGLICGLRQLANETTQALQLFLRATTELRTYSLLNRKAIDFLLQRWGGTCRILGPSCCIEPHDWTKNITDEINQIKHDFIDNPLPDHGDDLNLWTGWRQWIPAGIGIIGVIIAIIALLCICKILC


Assays:
Assay in all cases: cell-based or functional assay
[1] = target: T1, EBOV GP on rVSV particles
[2] = target: T2, SUDV GP on rVSV particles
[3] = target: T3, TAFV GP on VSV pseudotype particles
[4] = target: BDBV GP on rVSV particles (Bundibugyo virus (BDBV))
[5] = target: T4, RESTV GP on rVSV particles

Binder | IC50 (nM), neutralization of rVSV-GP [1] | IC50 (nM), neutralization of rVSV-GP [2] | IC50 (nM), neutralization of rVSV-GP [3] | IC50 (nM), neutralization of rVSV-GP [4] | IC50 (nM), neutralization of rVSV-GP [5]
PE-87 D110A (antibody, V domains shown) VH: QVQLVQSGVTLVQPGGSLRVSCAASGFTFSSYAMSWVRQAPGKGLEWVSAISGLGGSTYYADSVKGRFTISRDNSKNTLYLQMNSLRAEDTAVYYCAKDHRVWAAGYHFAYWGQGALVTVSS VL: DIVLTQSPSTLSASVGDRVTITCRASQSISSWLAWYQQKPGEAPKLLISDASSLESGVPSRFSGSGSGTEFTLTISSLQPDDFATYYCQQYYSSPTFGGGTKVEIK | 2 nM | 1.5 nM | 2.1 nM | 0.9 nM | 0.4 nM
PE-87 Y111A (antibody, V domains shown) VH: QVQLVQSGVTLVQPGGSLRVSCAASGFTFSSYAMSWVRQAPGKGLEWVSAISGLGGSTYYADSVKGRFTISRDNSKNTLYLQMNSLRAEDTAVYYCAKDHRVWAAGYHFDAWGQGALVTVSS VL: DIVLTQSPSTLSASVGDRVTITCRASQSISSWLAWYQQKPGEAPKLLISDASSLESGVPSRFSGSGSGTEFTLTISSLQPDDFATYYCQQYYSSPTFGGGTKVEIK | 0.8 nM | 0.8 nM | 1.1 nM | 0.4 nM | 0.1 nM

Reference: US20180244758A1 (MAPP BIOPHARMACEUTICAL, published 2018)
